This note sets out measurements from patent US20200362047A1 (CRESCENDO BIOLOGICS, published 2020).

The target in assay [1] is T1, human CD137 expressed on the surface of CHO cells (human, UniProt Q07011 24-255).
T1 construct: Also used for the Jurkat reporter cells that express human CD137 (functional rows); also called CHO human CD137 cells; CHO huCD137
Description: FMAT, CHO human CD137 cells. As to the method: Binding of His-tagged molecules to CHO human CD137, CHO parent, CHO human PSMA, DU145 PSMA and DU145 parent cells was assessed using Fluorescence Microvolume Assay Technology (FMAT). All reagents were prepared in FMAT assay buffer (pH 7.4) containing PBS, 0.1% Bovine Serum Albumin, 0.05% Sodium Azide. Serially diluted samples were transferred into 384 well black clear-bottomed assay plates (Costar cat. no. 3655) and incubated for a minimum of 2 hours at room temperature with 1.5 nM Anti-His (Millipore cat. no. 05-949), […] Goat Anti-Mouse Alexa Fluor-488 (Jackson ImmunoResearch cat. no. 115-545-071) and 2000 cells/well pre-stained with DRAQ5 (Thermo Scientific cat. no. 62251). Fluorescence emission was then measured on the TTP Mirrorball plate reader in the FL2 (502 nm-537 nm) and FL5 (677-800 nm) channels following excitation at 488 nm and 640 nm. Data was gated on FL5 perimeter and peak intensity and the FL2 median mean fluorescence intensity of the gated data used for determination of VH binding. Monovalent CD137 specific Humabody® VH, bispecific and trispecific molecules with a CD137 binding arm bound to CHO CD137 expressing cells. Monovalent PSMA specific Humabody® VH, bispecific and trispecific molecules with a PSMA binding arm bound to PSMA expressing cells.

Assay [2] deals with T2, human CD137-human Fc chimeric protein (Acro Biosystems cat no. 41B-H5258) (human, UniProt Q07011 24-186).
T2 construct: Bought protein; The Octet Protein G and Biacore experiments name no catalogue number; also called human CD137Fc recombinant protein; human CD137-Fc recombinant protein; not shown: human IgG1 Fc tag
Description: BLI (Octet RED384), CD137-Fc on Protein G sensors, 1:1 model. As to the method:
Binding kinetics of purified VH, bivalent VH and trivalent VH molecules were measured on a ForteBio Octet RED 384 instrument. CD137-Fc tagged protein was diluted to 3 μg/ml in kinetics buffer (0.1% BSA, 0.02% Tween, 1×PBS) and coupled to Protein G biosensors (ForteBio cat no. 18-5082) via the Fc tag. VH were serially diluted (typically 1:2 dilution series starting with 50 nM, VH at the highest concentration) and binding to the CD137-Fc-coupled Protein G biosensors measured. Binding kinetics were determined from the (blank subtracted) sensor gram trace using 1:1 binding models and ForteBio Octet Data Analysis 9.0 software. Example kinetic and binding affinity data obtained is shown Table 10 (monovalent VH) and FIG. 1 (bivalent and trivalent molecules).
Background: BLI is a label-free optical method that tracks binding on a fibre tip over time.

Assay [3] deals with T1, human CD137 expressed on the surface of …. The assay can be described thus: FMAT ligand inhibition, CD137 Ligand on CHO human CD137 cells. As to the method: In parallel to the binding assay, periplasmic extracts were tested for their ability to inhibit the interaction of human CD137 ligand protein with CHO human CD137 cells in an FMAT format. Total binding controls containing diluted periplasmic extract sample buffer and non-specific binding controls containing excess non-Fc tagged competitor were set up on each plate for data normalisation. Fluorescence signal was measured using the TTP Mirrorball and the FL2 median mean fluorescence intensity of gated used for the data normalisation. The data was expressed as a % of the total binding control (% control) after subtraction of the background signal determined from the non-specific binding control wells.
The ability of purified Humabody VH to inhibit the binding of CD137 Ligand to CHO human CD137 cells was measured in the FMAT ligand inhibition assay essentially as described in Example 6. VH inhibited the binding of human CD137 Ligand to human CD137.

The target of assay [4] is T3, CD137 on pre-stimulated human CD8+ T cells (human, UniProt Q07011 24-255).
T3 construct: also called pre-stimulated CD8+ cells; primary T cells
The assay can be described thus: flow cytometry, PMA/ionomycin-stimulated human CD8+ T cells, mean of 2-3 donors. As to the method:
Binding to primary T cells was measured using flow cytometry. Peripheral blood mononuclear cells (PBMCs) were isolated from human blood by density gradient centrifugation then CD8+ T cells purified using a negative selection isolation kit according to the manufacturer's protocol (Miltenyi Biotech cat no 130-042-401). T-cells were stimulated PMA/Ionomycin for 48-72 hours in RPMI media supplemented with 10% FBS, 2 mM Glutamine, 1× Pen/Strep. Cells were transferred into 96 well plates, blocked for 10 mins with staining buffer (PBS/1% BSA/0.05% Sodium Azide) then incubated with serially diluted VH in staining buffer (PBS/1% BSA) for 30 mins-1 hour at 4° C. Cells were washed by centrifugation then VH binding detected using Anti His antibody (Millipore 05-949) and Goat Anti Mouse Alexa Fluor-488 (Jackson ImmunoResearch cat no. 115-545-071). A Live Dead near IR stain (Molecular Probes cat no. L10119) was used for discrimination of live cells. After further washing cells were fixed and fluorescence measured by flow cytometry.
For orientation: Flow cytometry measures light scatter and fluorescence of single cells or particles in a stream.

T1 sequence (Q07011 24-255 limits assumed): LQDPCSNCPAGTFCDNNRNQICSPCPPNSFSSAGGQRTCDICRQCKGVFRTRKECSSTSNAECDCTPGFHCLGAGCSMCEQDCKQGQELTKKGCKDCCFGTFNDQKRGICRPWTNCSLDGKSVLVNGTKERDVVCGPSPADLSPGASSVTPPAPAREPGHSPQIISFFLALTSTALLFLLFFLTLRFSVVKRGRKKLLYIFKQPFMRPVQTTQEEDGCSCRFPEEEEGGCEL
T3 sequence (Q07011 24-255 limits assumed): as above

B1: Humabody VH 2.26 (VHH)
VHH: EVQLVESGGGLVKPGGSLRLSCTASGFTFTDYYMSWFRQAPGKGLEWVSHISSSGTTIDYADSVKGRFTISRDNAKNSLYLQMNSLRADDTAVYYCAREDIRMPGTTDFDNWGQGTLVTVSS
notes: human single VH domain
Broadly, the EC50 is the concentration at which the effect is half-maximal. Broadly, the Kd is the concentration at which binding is half-saturated. For orientation: koff means a measure of how fast the partners let go of each other. Read a high koff as fast dissociation. Usually kon stands for the rate constant with which the complex forms. High values mean faster complex formation, low ones slower complex formation. Broadly, the IC50 is the concentration that gives 50% inhibition. Lower therefore signals greater potency in that assay. Turning to B1, a half-maximal response in assay [1] (EC50) required 0.18 nM. In assay [2], this molecule displayed a Kd of 4.7 nM, an off-rate constant (koff) of 0.00842 s⁻¹ and a kon of 1.8e+06 M⁻¹ s⁻¹. In assay [3], this molecule displayed an IC50 of 8.5 nM. In assay [4], this molecule showed an EC50 of 2.8 nM.
